pKd: −log10 of the molar value.
Experiments:
[1] = target: recombinant human HER2 protein HER2-ECD with His-tag (human) (UniProt P04626); test: ELISA on coated HER2-ECD, 11-point dilution from 1000 ng/ml
[2] = target: recombinant human HER2 protein HER2-ECD with His-tag (human) (UniProt P04626); test: ELISA on coated HER2-ECD, average of 3 independent assays, single site fit

RC48-vc-MMAF, sequence (VH): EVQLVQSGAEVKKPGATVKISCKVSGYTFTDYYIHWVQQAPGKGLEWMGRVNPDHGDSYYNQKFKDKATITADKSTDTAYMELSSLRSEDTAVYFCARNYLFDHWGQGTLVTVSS
RC48-vc-MMAF, sequence (VL): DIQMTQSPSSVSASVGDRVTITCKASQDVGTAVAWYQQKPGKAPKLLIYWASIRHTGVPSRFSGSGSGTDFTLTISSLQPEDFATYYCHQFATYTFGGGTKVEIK
RC48-vc-MMAE, sequence (VH): as the sequence (VH) above
RC48-vc-MMAE, sequence (VL): as the sequence (VL) above
humanized anti-HER2 antibody RC48, sequence (VH): as the sequence (VH) above
humanized anti-HER2 antibody RC48, sequence (VL): as the sequence (VL) above

| Substance | Affinity [1] | Molar equivalent [1] | pKd [2] |
| --- | --- | --- | --- |
| RC48-vc-MMAE | 2.24 ng/mL | 15.2 pmol/L | – |
| RC48-vc-MMAF | 3.35 ng/mL | 13.5 pmol/L | – |
| human-murine chimeric antibody cRC48 | – | – | 10.11 |
| humanized anti-HER2 antibody RC48 | – | – | 10.36 |
